From patent publication US20210231650A1

Target: RGD peptide
Test: single-molecule conductance, electrodes carrying RGD peptide

single-molecule conductance peak G: 0.3 nS
Substance: αvβ3 integrin (receptor)
